Reference: patent US20110263454A1, “Methods of Identifying Functional Characteristics of Promoters, Transcription Modifying Proteins and Transcription Modulating Agents” (Salk Institute for Biological Studies, priority 2008, published 2011)

B1: GCNF: Germ Cell Nuclear Factor (NR6A1, GCNF1), cDNA driver (protein, UniProt Q15406 1-480, looked up)
Nuclear receptor subfamily 6 …: MERDEPPPSGGGGGGGSAGFLEPPAALPPPPRNGFCQDELAELDPGTISVSDDRAEQRTCLICGDRATGLHYGIISCEGCKGFFKRSICNKRVYRCSRDKNCVMSRKQRNRCQYCRLLKCLQMGMNRKAIREDGMPGGRNKSIGPVQISEEEIERIMSGQEFEEEANHWSNHGDSDHSSPGNRASESNQPSPGSTLSSSRSVELNGFMAFREQYMGMSVPPHYQYIPHLFSYSGHSPLLPQQARSLDPQSYSLIHQLLSAEDLEPLGTPMLIEDGYAVTQAELFALLCRLADELLFRQIAWIKKLPFFCELSIKDYTCLLSSTWQELILLSSLTVYSKQIFGELADVTAKYSPSDEELHRFSDEGMEVIERLIYLYHKFHQLKVSNEEYACMKAINFLNQDIRGLTSASQLEQLNKRYWYICQDFTEYKYTHQPNRFPDLMMCLPEIRYIAGKMVNVPLEQLPLLFKVVLHSCKTSVGKE
B2: SHP: Small Heterodimer Partner (NR0B2), cDNA driver (protein, UniProt Q15466 1-257, looked up)
Nuclear receptor subfamily 0 …: MSTSQPGACPCQGAASRPAILYALLSSSLKAVPRPRSRCLCRQHRPVQLCAPHRTCREALDVLAKTVAFLRNLPSFWQLPPQDQRRLLQGCWGPLFLLGLAQDAVTFEVAEAPVPSILKKILLEEPSSSGGSGQLPDRPQPSLAAVQWLQCCLESFWSLELSPKEYACLKGTILFNPDVPGLQAASHIGHLQQEAHWVLCEVLEPWCPAAQGRLTRVLLTASTLKSIPTSLLGDLFFRPIIGDVDIAGLLGDMLLLR
B3: DAX-1: DAX1 (NR0B1), cDNA driver (protein, UniProt P51843 1-470, looked up)
Nuclear receptor subfamily 0 …: MAGENHQWQGSILYNMLMSAKQTRAAPEAPETRLVDQCWGCSCGDEPGVGREGLLGGRNVALLYRCCFCGKDHPRQGSILYSMLTSAKQTYAAPKAPEATLGPCWGCSCGSDPGVGRAGLPGGRPVALLYRCCFCGEDHPRQGSILYSLLTSSKQTHVAPAAPEARPGGAWWDRSYFAQRPGGKEALPGGRATALLYRCCFCGEDHPQQGSTLYCVPTSTNQAQAAPEERPRAPWWDTSSGALRPVALKSPQVVCEAASAGLLKTLRFVKYLPCFQVLPLDQQLVLVRNCWASLLMLELAQDRLQFETVEVSEPSMLQKILTTRRRETGGNEPLPVPTLQHHLAPPAEARKVPSASQVQAIKCFLSKCWSLNISTKEYAYLKGTVLFNPDVPGLQCVKYIQGLQWGTQQILSEHTRMTHQGPHDRFIELNSTLFLLRFINANVIAELFFRPIIGTVSMDDMMLEMLCTKI

Legend:
mPer1 promoter = test: NHR-promoter luciferase screen, mPer1 promoter; format: cell-based, mouse; details: for Luc. act., normalized to lacZ / Normalized Luc. act., normalized to control: Per1 promoter reporter, co-transfected HR, with or without its ligand; for Normalized Luc. act., normalized to control: relative to control; for luciferase activity normalized to lacZ activity and to a control, mPer1: mPer1 promoter-luciferase, CV-1 cells, NHR +/- ligand, control = 1.00
In short: (§1)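 CV-1 cells were co-transfected with 50 ng NHR (homodimer or NHR/RXR heterodimer), 100 ng promoter-luciferase construct and 50 ng LacZ. Luciferase was normalized to LacZ and to a no-NHR/no-ligand control.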

mUCP1 promoter = test: NHR-promoter luciferase screen, mUCP1 promoter; format: cell-based, mouse; details: for Luc. act., normalized to lacZ / Normalized Luc. act., normalized to control: mUCP1 promoter reporter, co-transfected HR, with or without its ligand; for Normalized Luc. act., normalized to control: relative to control; for luciferase activity normalized to lacZ activity and to a control, mUCP!: mUCP! promoter-luciferase, CV-1 cells, NHR +/- ligand, control = 1.00
In short: as §1

mLeptin promoter = test: NHR-promoter luciferase screen, mLeptin promoter; format: cell-based, mouse; details: for Luc. act., normalized to lacZ / Normalized Luc. act., normalized to control: Table 7, mLeptin; for Results of assays of transcription factor (+/- ligand) with mLeptin: Table 6d, luciferase activity relative to control (control = 1.00)
In short: as §1

mUCP3 promoter = test: NHR-promoter luciferase screen, mUCP3 promoter; format: cell-based, mouse; details: for Normalized Luc. act., normalized to control / Luc. act., normalized to lacZ: mUCP3 promoter reporter; for Normalized Luc. act., normalized to control: HR without or with its ligand, relative to control; for Luc. act., normalized to lacZ: hormone receptor (HR) without or with its ligand; for mUCP3 promoter reporter activity: transcription factor +/- ligand, control = 1.00
In short: as §1

hMDR1 promoter = test: NHR-promoter luciferase screen, hMDR1 promoter; format: cell-based, human; details: for Luc. act., normalized to lacZ / Normalized Luc. act., normalized to control: MDR1 promoter, HR/ligand component; for hMDR1 promoter reporter activity: transcription factor +/- ligand, control = 1.00
In short: as §1

hTNFa promoter = test: NHR-promoter luciferase screen, hTNFa promoter; format: cell-based, human; details: for Luc. act., normalized to lacZ / Normalized Luc. act., normalized to control: TNFa promoter, HR component without or with ligand; for hTNFa promoter reporter activity: transcription factor +/- ligand, control = 1.00
In short: as §1

Molecule	Luc. act., normalized to lacZ (mPer1 promoter)	Normalized Luc. act., normalized to control (mPer1 promoter)	luciferase activity normalized to lacZ activity and to a control, mPer1 (mPer1 promoter)	Luc. act., normalized to lacZ (mUCP1 promoter)	Normalized Luc. act., normalized to control (mUCP1 promoter)	luciferase activity normalized to lacZ activity and to a control, mUCP! (mUCP1 promoter)	Luc. act., normalized to lacZ (mLeptin promoter)	Normalized Luc. act., normalized to control (mLeptin promoter)	Results of assays of transcription factor (+/- ligand) with mLeptin (mLeptin promoter)	Normalized Luc. act., normalized to control (mUCP3 promoter)	Luc. act., normalized to lacZ (mUCP3 promoter)	mUCP3 promoter reporter activity (mUCP3 promoter)	Luc. act., normalized to lacZ (hMDR1 promoter)	Normalized Luc. act., normalized to control (hMDR1 promoter)	hMDR1 promoter reporter activity (hMDR1 promoter)	Luc. act., normalized to lacZ (hTNFa promoter)	Normalized Luc. act., normalized to control (hTNFa promoter)	hTNFa promoter reporter activity (hTNFa promoter)
B1	151.9	1.1	1.06	3.8	0.8	0.85	1.5	0.5	0.50	1.0	0.66	0.98	0.3	0.8	0.83	1203.7	1.2	1.22
B2	130.3	0.9	0.90	4.1	0.9	0.93	2.7	0.9	0.91	1.1	0.77	1.15	0.3	0.8	0.84	914.4	0.9	0.93
B3	153.4	1.1	1.07	6.2	1.4	1.39	2.5	0.9	0.87	1.3	0.89	1.31	0.3	0.9	0.89	854.8	0.9	0.87
